Results from the RNAGym collection of RNA variant scans (doi:10.7554/elife.80360).

B1: CPEB3 Ribozyme (parent)
chain: GGGGGCCACAGCAGAAGCGUUCACGUCGCGGCCCCUGUCAGAUUCUGGUGAAUCUGCGAAUUCUGCUGU

Variants of: B1
Test: self-cleavage, relative activity (ratio to wild type); higher = more cleavage; co-transcriptional
In the case of C29A U69A, the self-cleavage is reported as 0.91.
Work on C29A U69G yielded a self-cleavage of 0.864.
Work on G28U G68U yielded a self-cleavage of 0.208.
For G28U G68A, the self-cleavage was 0.195.
Work on G30U U67G yielded a self-cleavage of 0.724.
Variant G30U U67C has a self-cleavage of 0.624.
Work on G30C A42U yielded a self-cleavage of 0.41.
Work on G31A U61C yielded a self-cleavage of 0.327.
In the case of G31C A40U, the self-cleavage is reported as 0.165.
G31C A40C showed a self-cleavage of 0.203.
G30A G68C gave a self-cleavage of 1.01.
With G30A G68U the self-cleavage was 1.
Variant G30A U64A has a self-cleavage of 0.634.
With G30A U64G the self-cleavage was 0.624.
G30A U69G showed a self-cleavage of 1.01.
With C29A C66A the self-cleavage was 0.334.
Variant G31A C63A has a self-cleavage of 0.32.
G31C C33U gave a self-cleavage of 0.45.
C29G G37C gave a self-cleavage of 0.169.
In the case of C29G G37A, the self-cleavage is reported as 0.178.
With G30A U62A the self-cleavage was 0.445.
For G30A U62G, the self-cleavage was 0.413.
Variant C29G U64A has a self-cleavage of 0.191.
Work on C29A G50C yielded a self-cleavage of 0.71.
For C29G C32U, the self-cleavage was 0.313.
Work on G31A G37U yielded a self-cleavage of 0.213.
Work on G28U U64C yielded a self-cleavage of 0.219.
C29U G41U gave a self-cleavage of 0.191.
Variant C29G A51U has a self-cleavage of 0.439.
Work on C29G A51C yielded a self-cleavage of 0.484.
Work on C29G A51G yielded a self-cleavage of 0.541.
Work on C29G C45U yielded a self-cleavage of 0.601.
Work on G31C A51G yielded a self-cleavage of 0.364.
For G31C A51U, the self-cleavage was 0.237.
For G31C A51C, the self-cleavage was 0.161.
In the case of G31A G65U, the self-cleavage is reported as 0.594.
For G31A G65A, the self-cleavage was 0.711.
For G31A G65C, the self-cleavage was 0.539.
For C29A C39A, the self-cleavage was 0.327.
With C29A U62G the self-cleavage was 0.269.
Variant G28U U36A has a self-cleavage of 0.168.
In the case of G28U U36G, the self-cleavage is reported as 0.106.
G30C G31U showed a self-cleavage of 0.224.
For G30C C34G, the self-cleavage was 0.259.
In the case of G30C G56U, the self-cleavage is reported as 0.404.
G30C G56C showed a self-cleavage of 0.236.
For G30C C57U, the self-cleavage was 0.244.
G30C C57A showed a self-cleavage of 0.302.
G30A G41U showed a self-cleavage of 0.341.
C29A C63U gave a self-cleavage of 0.465.
In the case of G30U C35U, the self-cleavage is reported as 0.292.
Variant C29U G58C has a self-cleavage of 0.398.
In the case of C29U U44A, the self-cleavage is reported as 0.26.
Variant G30U A52U has a self-cleavage of 0.342.
Work on G30A U49A yielded a self-cleavage of 0.89.
G31A U46C gave a self-cleavage of 0.9.
With G31A U46G the self-cleavage was 0.962.
Variant G31A C34U has a self-cleavage of 0.605.
In the case of G31A C34G, the self-cleavage is reported as 0.262.
For G30A G37A, the self-cleavage was 0.23.
G30A G37U showed a self-cleavage of 0.196.
Work on G30A G37C yielded a self-cleavage of 0.19.
Work on G30U G41C yielded a self-cleavage of 0.209.
Work on C29U U62A yielded a self-cleavage of 0.15.
In the case of C29A C45G, the self-cleavage is reported as 0.605.
Work on C29A C45A yielded a self-cleavage of 0.635.
With G30A G58A the self-cleavage was 0.682.
G30A G58C gave a self-cleavage of 0.858.
G30A G58U showed a self-cleavage of 0.896.
With C29G C54G the self-cleavage was 0.246.
Variant C29G C54U has a self-cleavage of 0.545.
Work on G30C U62C yielded a self-cleavage of 0.424.
G31A U67G gave a self-cleavage of 1.01.
G30A C54G showed a self-cleavage of 0.333.
G30U C45U showed a self-cleavage of 0.329.
With G30U C45A the self-cleavage was 0.335.
Work on C29A U49A yielded a self-cleavage of 0.805.
G28U G58U showed a self-cleavage of 0.182.
For C29G C63G, the self-cleavage was 0.183.
G30U G68A gave a self-cleavage of 0.88.
For G30U G68U, the self-cleavage was 0.78.
In the case of C29A G37A, the self-cleavage is reported as 0.207.
For C29A G68A, the self-cleavage was 0.914.
Work on G30U U62A yielded a self-cleavage of 0.2.
For C29G G68U, the self-cleavage was 0.8.
C29U G47U showed a self-cleavage of 0.631.
For G30A G47A, the self-cleavage was 0.916.
G30A G47U showed a self-cleavage of 0.939.
Work on C29U G56C yielded a self-cleavage of 0.26.
Variant G31A U53G has a self-cleavage of 0.573.
Variant G30C G50U has a self-cleavage of 0.679.
Variant G30C G50C has a self-cleavage of 0.536.
For G30C G50A, the self-cleavage was 0.621.
With G30A A42U the self-cleavage was 0.677.
G30A A42C gave a self-cleavage of 0.623.
Work on C29A A51C yielded a self-cleavage of 0.534.
C29U U46G showed a self-cleavage of 0.571.
Variant C29U U46C has a self-cleavage of 0.433.
G30A A52G gave a self-cleavage of 0.852.
Work on C29G G50C yielded a self-cleavage of 0.457.
For G30C U64A, the self-cleavage was 0.467.
G30C U64G showed a self-cleavage of 0.455.
With G30C U64C the self-cleavage was 0.478.
Variant G31A A59G has a self-cleavage of 0.811.
Variant G30C U67G has a self-cleavage of 0.94.
Variant G30C U67C has a self-cleavage of 0.883.
G31A A52G showed a self-cleavage of 0.907.
For G31A A52U, the self-cleavage was 0.888.
C29A C35A showed a self-cleavage of 0.157.
For G28U U43A, the self-cleavage was 0.135.
Work on G28U U43G yielded a self-cleavage of 0.0809.
C29A G47A gave a self-cleavage of 0.796.
C29U A60C gave a self-cleavage of 0.223.
G31A G47C gave a self-cleavage of 0.921.
With G31A G47A the self-cleavage was 0.897.
Work on C29U C39G yielded a self-cleavage of 0.163.
Work on G30C A40U yielded a self-cleavage of 0.296.
For C29G G58A, the self-cleavage was 0.327.
In the case of G31A A60C, the self-cleavage is reported as 0.304.
For G31A A60U, the self-cleavage was 0.322.
In the case of C29U A42G, the self-cleavage is reported as 0.246.
Work on C29U A42C yielded a self-cleavage of 0.229.
G30A U46G showed a self-cleavage of 0.888.
In the case of G30A C33G, the self-cleavage is reported as 0.227.
G30U A42G showed a self-cleavage of 0.27.
C29U C33U gave a self-cleavage of 0.511.
C29U U64G gave a self-cleavage of 0.206.
Work on C29U U64A yielded a self-cleavage of 0.171.
G30A C45A gave a self-cleavage of 0.807.
C29A A59C showed a self-cleavage of 0.274.
For C29A A59U, the self-cleavage was 0.283.
For C29A G41A, the self-cleavage was 0.215.
Work on C29A G41U yielded a self-cleavage of 0.296.
C29G U38A showed a self-cleavage of 0.316.
Variant C29U C54A has a self-cleavage of 0.169.
For C29A U43C, the self-cleavage was 0.465.
In the case of C29A U43G, the self-cleavage is reported as 0.364.
G30U G37U gave a self-cleavage of 0.166.
In the case of G30U U46G, the self-cleavage is reported as 0.441.
C29A C33G showed a self-cleavage of 0.281.
C29A C33U showed a self-cleavage of 0.594.
In the case of G30U U61A, the self-cleavage is reported as 0.177.
G30U U61G showed a self-cleavage of 0.215.
With C29G U49C the self-cleavage was 0.544.
C29U U36C showed a self-cleavage of 0.244.
With C29U U36G the self-cleavage was 0.147.
For G30A U67C, the self-cleavage was 0.959.
Work on G30C C63A yielded a self-cleavage of 0.292.
For G30C A51U, the self-cleavage was 0.61.
In the case of G28U U61A, the self-cleavage is reported as 0.204.
For C29A C54U, the self-cleavage was 0.682.
Variant C29A C54G has a self-cleavage of 0.299.
Variant C29U U38A has a self-cleavage of 0.2.
G30U C32G showed a self-cleavage of 0.216.
G30U C32U gave a self-cleavage of 0.181.
Variant C29A C57U has a self-cleavage of 0.247.
G31C A59G gave a self-cleavage of 0.255.
G31C C57A showed a self-cleavage of 0.163.
For G31C C57U, the self-cleavage was 0.184.
For G30C C39G, the self-cleavage was 0.403.
With G30C G41C the self-cleavage was 0.232.
Variant G30C G41U has a self-cleavage of 0.336.
G30A U61G showed a self-cleavage of 0.447.
For G30A U61C, the self-cleavage was 0.39.
G30A U55A gave a self-cleavage of 0.638.
G30U G31U showed a self-cleavage of 0.18.
For C29A U67G, the self-cleavage was 0.79.
